We go through one substance from paper PMC6983136.

This data set relates to NC(=O)N[C@H]1NC(=O)NC1=O. Nature of the data set: purified protein. Particulars: free enzyme, 70 nM monomer, 20 mM potassium phosphate, pH 7.4, 37 °C, racemic allantoin added, table states (S)-allantoin, unclear whether concentration counts racemate or S form.

With “puuE (allantoinase from Pseudomonas fluorescens) (Pseudomonas fluorescens Pf0-1)”, the Km stood at 1.35 ± 0.43 mM, the kcat is 102 s⁻¹ and the kcat/Km was determined as 75200 M⁻¹ s⁻¹.
